Experimental data reported in the DeepSol protein solubility set.

Assay: soluble on expression in E. coli; label from the status in PepcDB or PDB records

Sequence | soluble on expression in E. coli
MSLNQFTTDLVQALVQKENVTEIFRSHLENAVNTLLASELTAFLDYEKYDRIGFNTGNSRNGSYERTLHTEFGELHLVIPRDRNGDFKQQTVAPYKRSNDTLEAFVIHMFQKGVTTAEIAHLMERMYGHHYTPQTISNMTKVMSEQVEAFRDRTLCARYACVYLDATYIALKRDTVSKEAVYIAVGIREDGSKEVLGYTIAPNESAFVWKELLEDIKSRGVEEILLFISDGLKGISDSVFSIYPASSYQTCCVHLSRTIAHKVRVSDRAEICEDFKSVYRAESLEMGQQALHSFIEKWKSKYPKVTKPLLNNSYLFTFYSFPKSIWRSIYSTNLIESFNKQIKKYSKRKEQFPNEESLERFLVSQFDQYNQRFATRCHIGFDQARAELQMMFKTNEGHHHHHH | soluble
MASKAVILAGGLGTRLSEETIVKPKPMVEIGGKPILWHIMKMYSVHGIKDFIICCGYKGYVIKEYFANYFLHMSDVTFHMAENRMEVHHKRVEPWNVTLVDTGDSSMTGGRLKRVAEYVKDDEAFLFTYGDGVADLDIKATIDFHKAHGKKATLTATFPPGRFGALDIQAGQVRSFQEKPKGDGAMINGGFFVLNPSVIDLIDNDATTWEQEPLMTLAQQGELMAFEHPGFWQPMDTLRDKVYLEGLWEKGKAPWKTWE | soluble
MSLALLNVDKLSVHFGDESAPFRAVDRISYSVKQGEVVGIVGESGSGKSVSSLAIMGLIDYPGRVMAEKLEFNGQDLQRISEKERRNLVGAEVAMIFQDPMTSLNPCYTVGFQIMEAIKVHQGGNKSTRRQRAIDLLNQVGIPDPASRLDVYPHQLSGGMSQRVMIAMAIACRPKLLIADEPTTALDVTIQAQIIELLLELQQKENMALVLITHDLALVAEAAHKIIVMYAGQVVETGDAHAIFHAPRHPYTQALLRALPEFAQDKERLASLPGVVPGKYDRPNGCLLNPRCPYATDRCRAEEPALNMLADGRQSKCHYPLDDAGRPTEGHHHHHH | soluble
MISVDTMTNASSTEGISLHHISVSDLDNNCYLLTTESDEGTQGLLIDAADNAPALLDLAESAGARITAVVTTHRHFDHVRALEDVLDTTKATHFASLGDSPRLPRSADTTLGEGDTLRWAGHNLRAHILRGHTQEGLALSIKIDGIYHLFVGDSLFPRGVGKTSTPEEFNQLLSDVKTRLFDVYPDTAVVHPGHGKPTTLGTERPHLEQWRQRGW | not soluble
MAHHHHHHMSVEEVQNAAAMADEEIPTLEAAEVPQNAKQSKRYAKAMAKMGLKPEPNITKVTIRKVGSLSFAMVQPEVYRFPGTNTFVIFGEAQLEDTSALAQEAAARAAVSGAASASSDAAASVPAAEEDDDEEVDAGDLDEKEINVVMSQANVSRSKAIKALKNNNGDIVNTIMELTM | soluble
MSLLRFGIISTAKIAQDHVIPAIQDAENCVVSAIASRDHARARAVAERFSVPHAFGSYEEMLASDVIDAVYIPLPTAQHVEWTIKAANAGKHVLCEKPIALKAEEIDTLIAARDRNGVIVSEAFMVTYSPVWAKVKELLASGAIGTLKHVQGAFSYFNRDPGNMRNIPELGGGALPDIGVYPTIVTRFATGAEPRRVQATVERDREFGTDIYSSVRADFGTFELSFYLATQLASRQLMVFHGTDGYIEVKSPFNANRWGAEEIELTNQAHNQSQVFRFQDSRQYKLEAEAFARAVRGEGEVVTLENSRKNQLFIDAIYRAAEKDGWETVEGHHHHHH | soluble
MGSDKIHHHHHHVHAASRGAHRRLGAMRSSASQPLLKAALWDMDGTIVDTEPYWIEAEHALVAAHGGQWSHAQAMQLVGQSLVFSAGVLQKAGVKLEAREIIDSLTARVVSKVRKSVPWRPGARELLDQLHEAGIRCALVTMSEGPLAREVVAALPKPYFEFLVTGDTVTNGKPHPEAYLKAVELLQQGDSALTIADCVALEDSAPGVAAAMAAGVATVAIPHIVPLPDDPARATWHSLEGRTVADLQQLVARRSEFAVGDIGLEDAAFRSHGLD | not soluble
MTSITVQLRSGLDGVYFALKQMSGLRAKLLLVGNENPVPTVLPASQRGTPFPGGNTMTQASLIRLSELNNDAQYNLNDTSMYNPVGAAAYGVNGDKIGTVRDALVEPETGRIRYFLVDVGGWFSSKEVLVPVGYGRVDDSGVYFDSLTKDQVKDMSEYRADQAYSSEMMDTDERVLRGNQSQEEYHQRAYQTPDRLQLLEERLVVNKDRFKAGSVQIGKRIETRQETVSVPLQREEVVIERHAVTDGRAVEGAVLGEGHQTMSVDLEAERANISKQAYVTEEVSVGKRAVTETQQVTETVGREVLDVNQTGDVRTTEGTALTDDTTKRNILEHHHHHH | soluble
MGSDKIHHHHHHMWFKNLQLHRFSAPWSPSADEVEASLAKHAFFPGTSLEMQTQGWASPRDNGQLVHAVGRQMLLTLRTEKKLLPATVVNQVTKARAAEVEEQQGYKPGRKQLRELKEQVTEELLPRAFSIRRDTRVWIDPDNGWLAIDAASTAKADEVRGMLFKALDALPLANLHVNQSPVAAMTDWLSTDVAPAGFTVDQEIELQSGSESKATVRYVRHPLDAEDLRRHISGGKRCTRLAMTWNDRVSFVLTDSLAIKRVAPLDVIKEQADGTVSDEDERFDADFTLMAGELAGMLGDLTEALGGERKA | not soluble
MGSDKIHHHHHHMQDIDEFLKKHRITEIEAIIPDMAGIARGKIIPRSKFETGESMRLPQAVMIQTVTGDYPEDGSLTGVTDPDMVCLPDASTIRLIPWAIDPTAQVIHDCVHFDGTPVEISPRRVLRRVLELYKAKGWKPVIAPELEFYLVDMNKDPDLPLAPPIGRTGRPETGRQSYSIEAVNEFDPLFEDIYEYCEVQDLEVDTLIHEVGAAQMEINFLHGDPLNLADRVFLFKRTVREAALRHHMYATFMSKPMENEPGSAMHVHQSIVDEETGRNLFTGDDGGPTDMFYAYIAGLQKYTPALMPIFAPYINSYRRLSRFMAAPINVQWGYDNRTVGFRVPHSSPVSRRVENRIPGVDCNPYLAIAGTLAAGYLGMTRRLEPTEPLASDGYSLPYQLPRNLEEGLTLMSACEPLAEILGEKFVKAYLALKETEYEAFFRVISSWERKHLLLHV | not soluble
MSDPVADFLAREQNLFADFDGAPPAAAAANPDAPEADAPAPALDDDFGDLQIAGDEPPPVVHPTDSGVDLDGLVDDNAAAPAIVVPAVEPMVNGNHSASSGGSKGPSPILSTVPRIEAEKIRLWKAQQEQLLSKKDEAEEKKKIELRANAKKELEEWYKQREKTLQLSHDENLKNEKSNQELFAKQQDGDAQWETVNKLVDQQKSKSGKDLSRLKTLLAGLKHAGK | not soluble
GSHMMGAKMAESLRLTCLACGQANKVPSDRLAAGPKCGICGAGLITGKVAGIDPAILARAERDDLPLLVDFWAPWCGPCRQMAPQFQAAAATLAGQVRLAKIDTQAHPAVAGRHRIQGIPAFILFHKGRELARAAGARPASELVGFVRGKLGARA | soluble
MHHHHHHMMSETAEKAIEIWKIRRLVKQLINCHGNGTSMITLIIPPGEQISRYSNMLAEEYGTASNIKSRVNRLSVLSAITSTRERLKLYNKVPDNGLVIYCGEVIMEGNKTRKLNIDFEPFKPINTSQYLCDNKFHTEALAELLESDQRFGFIVMDGHQTLYGVVSGSAREVLQRFTVDLPKKHGRGGQSALRFARLRDEKRHNYVRKVAEGAVQHFITDDKPNVAGIVLAGSADFKTELGQSDLFDQRLQSRIIKTVDVSYGGDAGFNQAIELAADTLSNVKYVQEKKLIQRFFDEISLDSGKYCFGVVDTMNALQEGAVETLLCFADLDMIRYEFKNSEGNPVITYMTKEQEEKDSTNSFLLDKDTGAEMELVSSMLLSEWLAEHYKDYGANLEFVSDRSQEGMQFVKGFGGIGAVMRYQLDLSMLDPESDEFYSDSD | soluble
GSMTQIHQINDIDVHRITSGQVITDLTTAVKELVDNSIDANANQIEIIFKDYGLESIECSDNGDGIDPSNYEFLALKHYTSKIAKFQDVAKVQTLGFRGEALSSLCGIAKLSVITTTSPPKADKLEYDMVGHITSKTTTSRNKGTTVLVSQLFHNLPVRQKEFSKTFKRQFTKCLTVIQGYAIINAAIKFSVWNITPKGKKNLILSTMRNSSMRKNISSVFGAGGMRGLEEVDLVLDLNPFKNRMLGKYTDDPDFLDLDYKIRVKGYISQNSFGCGRNSKDRQFIYVNKRPVEYSTLLKCCNEVYKTFNNVQFPAVFLNLELPMSLIDVNVTPDKRVILLHNERAVIDIFKTTLSDYYNRQELALPK | soluble
MSLNTQDFLAGYTKRFVDNKEEDMSLDEYLELCKTDPTAYANPAERLLMAIGEPELIDTRHDPVLSRIFSNKIIHHYEVFEDFYGMEEPIEQIVGFLKHAAQGLEETKQVLYLLGPVGGGKSSIAEKLKDLMERVPFYAIKGSPVFESPLSLFNPQEDGELLRERFGIPTRYLRYLMSPWAVKRLQEYNGDISKFRVIKVKPSRLKQIAIAKTEPGDENNQDISSLVGKVDIRKLEEFSQDDPDAYSYSGGLCRANRGLLEFVEMFKAPIKVLHPLLTATQEGNYNATEGLSAIPFEGIILAHSNESEWQSFRNNKNNEAFIDRINIVKVPYCLRVSEEIKIYQKLIHNSSLANAPCAPGTLDMLAQFSVLTRLKEPQNSSIYSKMRVYNGESLKDTDPKAKSYQEYRDFAGVDEGMSGISTRFAFKILSKVFNFDHTEVAANPVHLMYVLERQIEQEQFPQELHETYLNFIKEYLATKYVDFIGKEIQTAYLESYSEYGQNIFDRYITYADFWIQDQDYRDPDTGEIFDRALLNLELEKIEKPAGISNPKDFRNEVVNFVLRARANNRGKNPVWNSYEKLKSVIEKKMFTNTEDLLPVISFNAKASEEDKKKHEEFISRMVEKGYTRKQVRLLCEWYLRVRKSQEGHHHHHH | soluble
MTAAQGNSNETLFSSYKMGRFDLSHRVVLAPMTRCRALNGVPNAALAEYYAQRTTPGGFLISEGTMVSPGSAGFPHVPGIYSDEQVEAWKQVVEAVHAKGGFIFCQLWHVGRASHAVYQPNGGSPISSTNKPISENRWRVLLPDGSHVKYPKPRALEASEIPRVVEDYCLSALNAIRAGFDGIEIHGAHGYLIDQFLKDGINDRTDQYGGSIANRCRFLKQVVEGVVSAIGASKVGVRVSPAIDHLDATDSDPLSLGLAVVGMLNKLQGVNGSKLAYLHVTQPRYHAYGQTESGRQGSDEEEAKLMKSLRMAYNGTFMSSGGFNKELGMQAVQQGDADLVSYGRLFIANPDLVSRFKIDGELNKYNRKTFYTQDPVVGYTDYPFLAPFSRL | soluble
MGSDKIHHHHHHMWDRGLHSYRMVHATLKCGCHYLGRVPKNVKFPVDKVLDDGSYLSWIAPDRKSKHKGGTRIQVRVIEYTIDSENGQQTYRLIPSLMDIALFPALLLATEYHQRWEIENTIDELKTHLNGRKTPIRSLKPREVVQEIYGWLLSHYAVRTLMFQAATAASISPLRLGFTGTLKVIRRAIADFQDANSEQLPFFLQANSGDFGAKNPYRRYIAALTQQRDFNLLILQNRLDHRFTNGCIPVFIIPKQINNREGLLQKTEVRK | not soluble
MTVVIGLTGGIASGKSTVSQMFRELSIPVIDADIIAREVVEKGKPAYNKIVEVFGTEVLQEDGELDRPKLGSVVFYNEEKRLQLNKIVHPAVREEMNRQKEMYIKEGMQAVVLDIPLLFESKLTSLVDRVLVVAVKPHTQLERLMKRNNFSEEEATARIQSQMPLEEKVKNADEVINNDGTIMGTKTQLQAILKKWNIID | not soluble
MSLRIAVVGATGRIGSKLTRTLLGAGHQVKALSRGGAALEALVEAGAEPFLGSFDTGAGALDTFFQDVEAAFLMVKTDWNNIEGHYPAVAQRFVDALRGSPVKLAVSLSAMGSDVDGKTGHFELFHHLDQRLNELNDIDMVHLRAAWFMENTLAWTASVAKYGRLAWFYEPDLKMPWVATDDIAGLAAKELTNPTGDHRVIRETGSEDLTMNELAAMIGREIGKPVEYRFIDRGRKEIENEYLARFGTPEHWLDDSRSADALNHGVVRFQGGDDVRPVLPTTMEAFLKTIWTPRYLEALASEEGHHHHHH | soluble
